Assay results: US9029097

Molecular target: β2AR-Rluc (human; Renilla reniformis) (UniProt P07550)
Experiment: BRET2, living HEK293T cells, Iso, untagged Gβ1γ2 co-expressed

- agonist-promoted increase in BRET: 68%
Substance: Gαs-GFP10
